Broadly, the Kd is the equilibrium constant for the complex coming apart.

The target in assay [1] is T1, VenL lyase domain (residues 1–212).
T1 chain: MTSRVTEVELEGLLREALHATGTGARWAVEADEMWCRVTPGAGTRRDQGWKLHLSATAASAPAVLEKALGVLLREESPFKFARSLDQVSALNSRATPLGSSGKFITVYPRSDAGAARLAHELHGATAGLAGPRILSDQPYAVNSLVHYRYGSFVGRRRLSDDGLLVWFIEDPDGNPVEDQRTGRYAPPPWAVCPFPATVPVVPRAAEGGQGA
Nature of the assay: MST.

Assay [2] addresses CurKC lyase domain (residues 1–217) (Thermomonospora curvata DSM43183, fluorophore label in the MST assays (position not given)). Nature of the assay: MST.

B1: VenL kinase domain (residues 213–513) (domain or fragment)
chain: DGSREARGAGAPVLLGGRFAVREAIRHTNKGGVYRGSDVRTGALVVIKEARPHVEADASGHDVRDWLRTEARTLERLRGTGLAPEPLALFEHGGHLFLAQQEVPGVALRTWVAEHFRDAGAERYRVDARAQVGRLVELVAAAHAHGCVLRDFTPGNVMVRPDGELRLIDLELAVLEGDAARPTRVGTPGFSAPERLTGAPVSPTGDYYSLGATACFVLAGKVPNLLPEEPATRAPEQRLAAWLSACAGPLRLPDGLAEMVLGLMKDAPAERWDPARAREALRRADRDDPVTGKPEDSKGSK
Consider B1, for which the figures for the Kd in assay [1] and in assay [2] were 32.3 ± 2.9 µM and 24.3 ± 3.5 µM, respectively.

The values are drawn from PMC9828337 (Angewandte Chemie (International Ed. in English), 2022).
